EC50 data for ten molecules are collected here from patent US20250281533A1 (LG CHEM, published 2025).

The labels stand for the following.
B1: positive control scFv G03 (scFv)
scFv: EVQLVQSGAEVKKPGATVKISCKVSGYTFTSYWMHWVQQAPGKGLEWIGYINPGTGYIEYNQKFKDRVTITADKSTDTAYMELSSLRSEDTAVYYCASSTAPFDYWGQGTLVTVSSGGGGSGGGGSGGGASEIVLTQSPGTLSLSPGERATLSCKASQDIKSYLSWYQQKPGQAPRLLIYYATRLADGIPDRFSGSGSGTDFTLTISRLEPEDFAVYYCLQYDESPYTFGQGTKLEIK
B2: scFv 2447_3B07 (scFv)
scFv: QVQLVESGGVVVQPGGSLRLSCAASGFTFDDYAMHWVRQAPGRGLEWVSLTSWDGGSTYYADSVKGRFTISRDNSKNSLYLQMNSLRAEDTALYYCAKDHSSGWYNGGMDVWGQGTMVTVSSGGGGSGGGGSGGGASSYELTQDPAVSVALGQTVRITCQGDSLRSYYASWYQQKPGQAPVLVIYGKNNRPSGIPDRFSGSSSGNTASLTITGAQAEDEADYYCNSRDSSGNHVVFGGGTKLTVL
B3: scFv 2447_3A12 (scFv)
scFv: EVQLVQSGAEVKKPGASVKVSCKASGYTFTSYGISWVRQAPGQGLEWMGWISAYNGNTNYAQKLRGRVTMTTDTSTSTAYMELRSLRSDDTAVYYCARDPHILTGYYRGGWFDPWGQGTLVTVSSGGGGSGGGGSGGGASSYELTQDPAVSVVLGQTVRITCQGDSLRSYYASWYQQKPGQAPVLVIYGKNNRPSGIPDRFSGSSSGNTASLTITGAQAEDEADYYCNSRDSSGNHRVFGGGTKLTVL
notes: also called #6
B4: scFv 2447_2H08 (scFv)
scFv: EVQLVQSGAEVKKPGASVKVSCKASGYTFTNYGISWVRQAPGQGLEWMGWISAYNGNTNYAQKLQGRVTMTTDTSTSTAYMELRSLRSDDTAVYYCARDPHILTGYYRGGWFDPWGQGTTVTVSSGGGGSGGGGSGGGASSYELTQDPAVSVALGQTVTITCQGDSLRTSYAGWLQQKPGQAPVLVLYGKTSRPSGIPDRFSGSTSGNTASLTITGAQAEDEAEYFCHSRDSNDNYLEVVFGGGTKLTVL
B5: scFv 2447_3C08 (scFv)
scFv: EVQLLESGGGLVQPGGSLRLSCAASGFTFDDYAMHWVRQAPGKGLEWVSGISWNSGSIGYADSVKGRFTISRDNAKNSLYLQMNSLRAEDTALYYCAKDRGSGYEGNYYGMDVWGQGTLVTVSSGGGGSGGGGSGGGASSYELTQDPAVSVALGQTVRITCQGDSLRSYYASWYQQKPGQAPVLVIYGKNNRPSGIPDRFSGTTSGNTASLTITGAQAEDEADYYCNSRDSSGNHYVFGTGTKVTVL
B6: scFv 2447_3A09 (scFv)
scFv: EVQLLESGGGLVQPGRSLRLSCAATGFTFDDYAMHWVRQAPGKGLEWVSGISWNSGSIGYADSVKGRFTISRDNAKNSLYLQMNSLRAEDTASYYCAKDVSSGWYWYAFDIWGQGTLVTVSSGGGGSGGGGSGGGASSYELTQDPAVSVALGQTVRITCQGDSLRSYYASWYQQKPGQAPVLVIYGKNNRPSGIPGRFSGSSSGNTASLTVTGAQAEDEADYYCNSRDSGGSVVFGGGTKLTVL
notes: also called #5
B7: scFv 2447_3H02 (scFv)
scFv: EVQLLESGGGLVQPGRSLRLSCAASGFTFDDYAMHWVRQAPGKGLEWVSGISWDSGSIGYADSVKGRFTISRDNAKNSLYLQMNSLRAEDTALYYCAKDVSSGWYWYAFDIWGQGTLVTVSSGGGGSGGGGSGGGASSYELTQDPAVSVALGQTVRITCQGDILRSYYASWYQQKPGQAPVLVIYGKNNRPSGIPDRFSGSSSGNTASLTITGAQAEDEADYYCNSRDSSGNRVVFGGGTKLTVL
notes: also called #9
B8: scFv 2447_3A01 (scFv)
scFv: EVQLLESGGGLVQPGGSLRLSCAASGFTFDDYAMHWVRQAPGKGLEWVSGISWNSGSIVYADFVKGRFTISRDNAKNSLYLQMNSLRAEDTALYYCAKDISSGWYPGTFDYWGQGTLVTVSSGGGGSGGGGSGGGASSYELTQDPAVSVALGQTVRITCQGDSLRSYYASWYQQKPGQAPVLVIYGKNNRPSGIPDRFSGSSSGNTASLTVTGAQAEDEADYYCSSRDSSDDVVFGGGTQLTVL
B9: scFv 2447_3A08 (scFv)
scFv: EVQLVQSGAEVKKPGASVKVSCKASGYTFTSYGISWVRQAPGQGLEWMGWISAYNGNTNYAQKLQGRVTMTTDTSTSTAYMELRSLRSDDTAVYYCARDRATIFGVVTPFDYWGQGTLVTVSSGGGGSGGGGSGGGASSYELTQDPAVSVALGQTVRITCQGDSIRSYSASWYQQKPGQAPRLVIYGKNNRPSGIPDRVSGSTSGNTASLTVTGAQAEDEADYYCNSRDSSGNRVVFGGGTQLTVL
B10: scFv 2447_3H08 (scFv)
scFv: EVQLLESGGGLVQPGRSLRLSCAASGFTFDDYAMHWVRQAPGKGLEWVSGISWNSGSIDYADSVKGRFTISRDNSKNTLYLQMNSLRAEDTAVYYCARDRSSGWYTGSFDYWGQGTLVTVSSGGGGSGGGGSGGGASSYELTQDPAVSVALGQTVRITCQGDSLRSYYASWYRQKPGQAPVLVIYGKNNRPSGIPDRFSGSSSGNTASLTIIGAQAEDEADYYCQSRDSSDNRVLFGGGTKVTVL
notes: also called #10

T1 sequence (P15941 24-1255): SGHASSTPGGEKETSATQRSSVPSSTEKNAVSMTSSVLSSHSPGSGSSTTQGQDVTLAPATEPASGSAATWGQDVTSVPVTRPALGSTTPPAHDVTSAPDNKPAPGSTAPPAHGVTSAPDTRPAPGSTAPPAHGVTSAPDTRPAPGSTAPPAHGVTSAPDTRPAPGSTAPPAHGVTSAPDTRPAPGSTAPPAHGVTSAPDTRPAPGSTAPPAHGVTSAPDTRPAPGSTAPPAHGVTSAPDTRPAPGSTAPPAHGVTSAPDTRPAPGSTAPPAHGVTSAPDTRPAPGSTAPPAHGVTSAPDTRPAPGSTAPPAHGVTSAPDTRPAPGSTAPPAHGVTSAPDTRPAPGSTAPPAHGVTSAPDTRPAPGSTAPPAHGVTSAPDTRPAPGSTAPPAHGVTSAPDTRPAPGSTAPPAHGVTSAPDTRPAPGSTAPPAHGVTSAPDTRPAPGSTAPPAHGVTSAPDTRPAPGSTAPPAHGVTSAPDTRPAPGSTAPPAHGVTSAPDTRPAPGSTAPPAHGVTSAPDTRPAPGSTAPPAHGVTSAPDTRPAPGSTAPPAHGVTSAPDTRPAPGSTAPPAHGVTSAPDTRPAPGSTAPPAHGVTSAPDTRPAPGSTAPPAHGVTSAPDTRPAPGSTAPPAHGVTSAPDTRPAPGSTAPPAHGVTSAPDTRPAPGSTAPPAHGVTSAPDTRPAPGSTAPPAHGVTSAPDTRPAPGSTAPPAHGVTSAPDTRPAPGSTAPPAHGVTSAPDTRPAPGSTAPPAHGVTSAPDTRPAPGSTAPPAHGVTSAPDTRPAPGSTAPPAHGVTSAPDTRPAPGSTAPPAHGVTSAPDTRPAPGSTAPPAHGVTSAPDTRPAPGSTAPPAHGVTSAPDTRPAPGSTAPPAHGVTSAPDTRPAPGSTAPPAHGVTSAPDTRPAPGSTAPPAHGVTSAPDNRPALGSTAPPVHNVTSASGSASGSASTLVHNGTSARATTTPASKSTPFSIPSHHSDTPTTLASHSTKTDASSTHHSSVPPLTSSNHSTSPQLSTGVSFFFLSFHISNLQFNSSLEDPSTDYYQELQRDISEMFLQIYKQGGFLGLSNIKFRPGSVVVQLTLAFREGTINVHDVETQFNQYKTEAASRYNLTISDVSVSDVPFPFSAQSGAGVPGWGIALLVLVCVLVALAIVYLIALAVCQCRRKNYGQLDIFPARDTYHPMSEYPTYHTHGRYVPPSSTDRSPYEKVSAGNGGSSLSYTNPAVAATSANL

The test addresses T1, mucin1 (MUC1) naturally expressed on human breast cancer cell lines (human, UniProt P15941 24-1255).
T1 construct: whole, on cells; The cell line of each entry is named under assay or readout; also called MUC1 on T47D cells; MUC1 on HCC70 cells
Description: flow cytometry (PE MFI, corrected to G03 at 380 ug/mL) on T47D cells. (A flow cytometer gives signals particle by particle.)
Usually EC50 stands for the concentration that produces a half-maximal response. Read a high EC50 as weaker potency. B1 displayed a concentration for a half-maximal effect (EC50) of 3.56 µg/mL.
Next, B2: 3.47 µg/mL; B3: 0.75 µg/mL.
As for B4, the half-maximal effective concentration (EC50) came to 130 µg/mL.
As to B5, the response was half-maximal at 2.04 µg/mL (EC50).
B6: the EC50 came out at 2.2 µg/mL.
As to B7, a half-maximal response (EC50) required 1.6 µg/mL.
The result for B8 reads 11.1 µg/mL; that for B9, 3.76 µg/mL; that for B10, 5.6 µg/mL.
